Results as given in US20110166062A1 (INDIANA UNIVERSITY RESEARCH AND TECHNOLOGY, published 2011).
Bridges are numbered along the chain shown (N, C = ends). Where no end group is shown, it is not given here. [ ]: non-standard residue; d: D form. Aib = CC(C)(N)C(=O)O

T1: GIP receptor (UniProt P48546 22-466)
T1 sequence (looked up): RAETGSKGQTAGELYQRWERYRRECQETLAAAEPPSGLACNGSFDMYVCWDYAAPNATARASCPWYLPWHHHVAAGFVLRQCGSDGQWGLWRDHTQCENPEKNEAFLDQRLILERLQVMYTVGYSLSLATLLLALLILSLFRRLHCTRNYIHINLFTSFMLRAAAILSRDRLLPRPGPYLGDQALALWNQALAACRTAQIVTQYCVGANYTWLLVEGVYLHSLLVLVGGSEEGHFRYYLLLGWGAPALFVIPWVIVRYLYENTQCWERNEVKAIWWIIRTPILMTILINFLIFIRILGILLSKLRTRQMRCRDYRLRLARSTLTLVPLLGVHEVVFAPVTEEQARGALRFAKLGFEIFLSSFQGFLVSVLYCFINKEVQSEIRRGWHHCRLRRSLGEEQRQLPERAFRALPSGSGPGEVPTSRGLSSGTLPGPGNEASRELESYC

T2: GIP receptor (UniProt P48546 22-466)
T2 sequence (looked up): T1 sequence (looked up)

B1: mt-169 (peptide)
peptide: Y[Aib]QGTFTSDYSIYLDEQAAKEFVCWLLAG-NH2
modifications: lactam 16-20; N-terminus assumed
SMILES: CC[C@H](C)[C@H](NC(=O)[C@H](CO)NC(=O)[C@H](Cc1ccc(O)cc1)NC(=O)[C@H](CC(=O)O)NC(=O)[C@H](CO)NC(=O)[C@@H](NC(=O)[C@H](Cc1ccccc1)NC(=O)[C@@H](NC(=O)CNC(=O)[C@H](CCC(N)=O)NC(=O)C(C)(C)NC(=O)[C@@H](N)Cc1ccc(O)cc1)[C@@H](C)O)[C@@H](C)O)C(=O)N[C@@H](Cc1ccc(O)cc1)C(=O)N[C@@H](CC(C)C)C(=O)N[C@@H](CC(=O)O)C(=O)N[C@H]1CCC(=O)NCCCC[C@@H](C(=O)N[C@@H](CCC(=O)O)C(=O)N[C@@H](Cc2ccccc2)C(=O)N[C@H](C(=O)N[C@@H](CS)C(=O)N[C@@H](Cc2c[nH]c3ccccc23)C(=O)N[C@@H](CC(C)C)C(=O)N[C@@H](CC(C)C)C(=O)N[C@@H](C)C(=O)NCC(N)=O)C(C)C)NC(=O)[C@H](C)NC(=O)[C@H](C)NC(=O)[C@H](CCC(N)=O)NC1=O
B2: mt-166 (peptide)
peptide: Y[dA]QGTFTSDYSIYLDEQAAKEFVNWLLAGGPSSGAPPPSC-NH2
modifications: lactam 16-20; N-terminus assumed
SMILES: CC[C@H](C)[C@H](NC(=O)[C@H](CO)NC(=O)[C@H](Cc1ccc(O)cc1)NC(=O)[C@H](CC(=O)O)NC(=O)[C@H](CO)NC(=O)[C@@H](NC(=O)[C@H](Cc1ccccc1)NC(=O)[C@@H](NC(=O)CNC(=O)[C@H](CCC(N)=O)NC(=O)[C@@H](C)NC(=O)[C@@H](N)Cc1ccc(O)cc1)[C@@H](C)O)[C@@H](C)O)C(=O)N[C@@H](Cc1ccc(O)cc1)C(=O)N[C@@H](CC(C)C)C(=O)N[C@@H](CC(=O)O)C(=O)N[C@H]1CCC(=O)NCCCC[C@@H](C(=O)N[C@@H](CCC(=O)O)C(=O)N[C@@H](Cc2ccccc2)C(=O)N[C@H](C(=O)N[C@@H](CC(N)=O)C(=O)N[C@@H](Cc2c[nH]c3ccccc23)C(=O)N[C@@H](CC(C)C)C(=O)N[C@@H](CC(C)C)C(=O)N[C@@H](C)C(=O)NCC(=O)NCC(=O)N2CCC[C@H]2C(=O)N[C@@H](CO)C(=O)N[C@@H](CO)C(=O)NCC(=O)N[C@@H](C)C(=O)N2CCC[C@H]2C(=O)N2CCC[C@H]2C(=O)N2CCC[C@H]2C(=O)N[C@@H](CO)C(=O)N[C@@H](CS)C(N)=O)C(C)C)NC(=O)[C@H](C)NC(=O)[C@H](C)NC(=O)[C@H](CCC(N)=O)NC1=O
B3: mt-168 (peptide)
peptide: YSQGTFTSDYSIYLDEQKAKEFVNWLLAGGPSSGAPPPS-NH2
modifications: lactam 18-21; N-terminus assumed
SMILES: CC[C@H](C)[C@H](NC(=O)[C@H](CO)NC(=O)[C@H](Cc1ccc(O)cc1)NC(=O)[C@H](CC(=O)O)NC(=O)[C@H](CO)NC(=O)[C@@H](NC(=O)[C@H](Cc1ccccc1)NC(=O)[C@@H](NC(=O)CNC(=O)[C@H](CCC(N)=O)NC(=O)[C@H](CO)NC(=O)[C@@H](N)Cc1ccc(O)cc1)[C@@H](C)O)[C@@H](C)O)C(=O)N[C@@H](Cc1ccc(O)cc1)C(=O)N[C@@H](CC(C)C)C(=O)N[C@@H](CC(=O)O)C(=O)N[C@@H](CCC(=O)O)C(=O)N[C@@H](CCC(N)=O)C(=O)N[C@H]1CCCCNC(=O)CC[C@@H](C(=O)N[C@@H](Cc2ccccc2)C(=O)N[C@H](C(=O)N[C@@H](CC(N)=O)C(=O)N[C@@H](Cc2c[nH]c3ccccc23)C(=O)N[C@@H](CC(C)C)C(=O)N[C@@H](CC(C)C)C(=O)N[C@@H](C)C(=O)NCC(=O)NCC(=O)N2CCC[C@H]2C(=O)N[C@@H](CO)C(=O)N[C@@H](CO)C(=O)NCC(=O)N[C@@H](C)C(=O)N2CCC[C@H]2C(=O)N2CCC[C@H]2C(=O)N2CCC[C@H]2C(=O)N[C@@H](CO)C(N)=O)C(C)C)NC(=O)[C@H](CCCCN)NC(=O)[C@H](C)NC1=O
B4: mt-167 (peptide)
peptide: YSQGTFTSDYSIYLDEEAAKEFVNWLLAGGPSSGAPPPS-NH2
modifications: lactam 17-20; N-terminus assumed
SMILES: CC[C@H](C)[C@H](NC(=O)[C@H](CO)NC(=O)[C@H](Cc1ccc(O)cc1)NC(=O)[C@H](CC(=O)O)NC(=O)[C@H](CO)NC(=O)[C@@H](NC(=O)[C@H](Cc1ccccc1)NC(=O)[C@@H](NC(=O)CNC(=O)[C@H](CCC(N)=O)NC(=O)[C@H](CO)NC(=O)[C@@H](N)Cc1ccc(O)cc1)[C@@H](C)O)[C@@H](C)O)C(=O)N[C@@H](Cc1ccc(O)cc1)C(=O)N[C@@H](CC(C)C)C(=O)N[C@@H](CC(=O)O)C(=O)N[C@@H](CCC(=O)O)C(=O)N[C@H]1CCC(=O)NCCCC[C@@H](C(=O)N[C@@H](CCC(=O)O)C(=O)N[C@@H](Cc2ccccc2)C(=O)N[C@H](C(=O)N[C@@H](CC(N)=O)C(=O)N[C@@H](Cc2c[nH]c3ccccc23)C(=O)N[C@@H](CC(C)C)C(=O)N[C@@H](CC(C)C)C(=O)N[C@@H](C)C(=O)NCC(=O)NCC(=O)N2CCC[C@H]2C(=O)N[C@@H](CO)C(=O)N[C@@H](CO)C(=O)NCC(=O)N[C@@H](C)C(=O)N2CCC[C@H]2C(=O)N2CCC[C@H]2C(=O)N2CCC[C@H]2C(=O)N[C@@H](CO)C(N)=O)C(C)C)NC(=O)[C@H](C)NC(=O)[C@H](C)NC1=O
B5: mt-280 (peptide)
peptide: Y[Aib]QGTFTSDYSIYLDKQAA[Aib]EFVNWLLAGGPSSGAPPPSK-NH2
modifications: N-terminus assumed
SMILES: CC[C@H](C)[C@H](NC(=O)[C@H](CO)NC(=O)[C@H](Cc1ccc(O)cc1)NC(=O)[C@H](CC(=O)O)NC(=O)[C@H](CO)NC(=O)[C@@H](NC(=O)[C@H](Cc1ccccc1)NC(=O)[C@@H](NC(=O)CNC(=O)[C@H](CCC(N)=O)NC(=O)C(C)(C)NC(=O)[C@@H](N)Cc1ccc(O)cc1)[C@@H](C)O)[C@@H](C)O)C(=O)N[C@@H](Cc1ccc(O)cc1)C(=O)N[C@@H](CC(C)C)C(=O)N[C@@H](CC(=O)O)C(=O)N[C@@H](CCCCN)C(=O)N[C@@H](CCC(N)=O)C(=O)N[C@@H](C)C(=O)N[C@@H](C)C(=O)NC(C)(C)C(=O)N[C@@H](CCC(=O)O)C(=O)N[C@@H](Cc1ccccc1)C(=O)N[C@H](C(=O)N[C@@H](CC(N)=O)C(=O)N[C@@H](Cc1c[nH]c2ccccc12)C(=O)N[C@@H](CC(C)C)C(=O)N[C@@H](CC(C)C)C(=O)N[C@@H](C)C(=O)NCC(=O)NCC(=O)N1CCC[C@H]1C(=O)N[C@@H](CO)C(=O)N[C@@H](CO)C(=O)NCC(=O)N[C@@H](C)C(=O)N1CCC[C@H]1C(=O)N1CCC[C@H]1C(=O)N1CCC[C@H]1C(=O)N[C@@H](CO)C(=O)N[C@@H](CCCCN)C(N)=O)C(C)C

biological target: GLP-1 receptor (UniProt P43220 24-463, limits assumed); assay: cell-based or functional assay

First: B1
Second: B2
The “EC50” value of the first is 2.4-fold lower: 0.057 nM for the first, 0.134 nM for the second.

First: B3
Second: B4
The “EC50” value of the first is 5.5-fold higher: 1.72 nM for the first, 0.315 nM for the second.

Compared with B1, B2 is lower in relative activity: 54.4% for the first, 26.9% for the second.

First: B3
Second: B4
The relative activity of the first is lower: 1.45% for the first, 7.94% for the second.

biological target: glucagon receptor (UniProt P47871 26-477, limits assumed); assay: cell-based or functional assay
Sequence (P47871 26-477 limits assumed): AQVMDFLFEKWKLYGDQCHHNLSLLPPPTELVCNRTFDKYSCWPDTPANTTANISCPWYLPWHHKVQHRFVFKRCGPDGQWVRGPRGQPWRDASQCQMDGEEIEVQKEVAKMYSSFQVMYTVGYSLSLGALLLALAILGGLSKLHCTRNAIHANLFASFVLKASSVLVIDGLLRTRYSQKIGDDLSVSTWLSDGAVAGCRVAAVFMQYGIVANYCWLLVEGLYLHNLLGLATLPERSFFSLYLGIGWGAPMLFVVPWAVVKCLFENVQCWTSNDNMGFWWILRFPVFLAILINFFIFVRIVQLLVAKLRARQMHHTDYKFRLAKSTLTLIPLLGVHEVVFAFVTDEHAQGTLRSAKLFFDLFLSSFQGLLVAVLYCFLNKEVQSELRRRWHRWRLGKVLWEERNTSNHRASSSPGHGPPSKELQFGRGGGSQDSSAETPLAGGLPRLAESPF

Compared with B1, B2 is 4.4-fold higher in “EC50” value: 0.199 nM for the first, 0.875 nM for the second.

Going from B3 to B4, the “EC50” value falls from 2.61 nM to 0.362 nM (7.2-fold).

First: B1
Second: B2
The relative activity of the first is higher: 51.3% for the first, 9.83% for the second.

Compared with B3, B4 is higher in relative activity: 4.79% for the first, 34.5% for the second.

biological target: T1, GIP receptor; assay: cell-based or functional assay

Compared with B1, B2 is 2.3-fold higher in “EC50” value: 0.142 nM for the first, 0.32 nM for the second.

First: B3
Second: B4
The “EC50” value of the first is 16-fold higher: 6.24 nM for the first, 0.399 nM for the second.

Going from B1 to B2, the relative activity falls from 14.8% to 5.94%.

Compared with B3, B4 is higher in relative activity: 0.32% for the first, 5.01% for the second.

biological target: T2, GIP receptor; assay: cell-based or functional assay

B5 was tested, and the “EC50” value was 0.0149 nM.
